Biological target: FGFR1 extracellular domain (UniProt P11362)
Assay: optical biosensor

UniProt P11362, sequence (P11362 22-376): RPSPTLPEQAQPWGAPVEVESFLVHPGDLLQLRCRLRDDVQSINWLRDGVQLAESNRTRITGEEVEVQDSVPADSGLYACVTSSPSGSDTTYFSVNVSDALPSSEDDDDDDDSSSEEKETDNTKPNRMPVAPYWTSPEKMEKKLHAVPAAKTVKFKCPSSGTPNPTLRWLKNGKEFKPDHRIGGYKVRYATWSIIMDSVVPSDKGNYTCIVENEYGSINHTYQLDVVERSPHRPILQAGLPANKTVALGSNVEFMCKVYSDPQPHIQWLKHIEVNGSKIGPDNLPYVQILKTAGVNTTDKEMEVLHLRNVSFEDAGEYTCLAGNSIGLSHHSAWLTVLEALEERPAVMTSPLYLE

Kd: 0.106 µM
Substance: Ncad-Fc (from UniProt P19022 160-724) (Fc fusion)
